# Results: US20110287936
# How the values were obtained:
# Experiment in all cases: SPR
# [1] = test system: L7-1C03-A5 (EsR1) (Artificial Sequence); conditions: ka 4.7e4 M-1 s-1, kd 7.8e-3 s-1; operator sequence not given for SPR
# [2] = test system: L7-1G06-B2 (Artificial Sequence); conditions: ka 4.6e4 M-1 s-1, kd 1.9e-2 s-1; operator sequence not given for SPR
# [3] = target: Wt TetR(B) (Tn10) (Escherichia coli) (UniProt P04483); conditions: ka 3.3e5 M-1 s-1, kd 3.0e-3 s-1; operator sequence not given for SPR
# [4] = target: L7-1F08-A11 (L7A11, EsR A11) (Artificial Sequence) (UniProt P04483); conditions: ka 7.1e4 M-1 s-1, kd 1.7e-2 s-1; operator sequence not given for SPR
# [5] = test system: L7-3E03-D1 (EsR D01) (Artificial Sequence); conditions: ka 5.5e4 M-1 s-1, kd 1.1e-2 s-1; operator sequence not given for SPR
substance,measurement,setting,value
tet operator used for SPR,Kd,[1],150 nM
same,Kd,[2],430 nM
same,Kd,[3],9 nM
same,Kd,[4],250 nM
same,Kd,[5],200 nM
